B1: HDV Ribozyme (parent)
chain: GGCCGGCAUGGUCCCAGCCUCCUCGCUGGCGCCGGCUGGGCAACAUUCCGAGGGGACCGUCCCCUCGGUAAUGGCGAAUGGGACCCA

Variants of: B1
Test: self-cleavage, relative activity (ratio to wild type); higher = more cleavage; co-transcriptional

Point of comparison: U60C G76U, self-cleavage 1.05. Against it:
- G59C C62U — higher, 1.12
- C58G G82C — lower, 0.302
- C58G G82A — lower, 0.277
- C58G U65G — higher, 1.16
- C58G U65C — lower, 0.782
- C58A G67A — lower, 0.745
- C58A G74C — lower, 0.324
- C58G C75U — lower, 0.122
- C58G C75A — lower, 0.196
- U60A U72G — lower, 0.467
- U60A U72C — lower, 0.415
- G59U C61U — lower, 0.997
- C58G C62G — lower, 0.639
- C58G C62U — lower, 0.73
- U60C U69G — lower, 0.95
- U60A G76A — lower, 1
- G59U C75U — lower, 0.145
- C58U U79A — higher, 1.07
- C58U C75A — lower, 0.095
- C58U C75U — lower, 0.302
- G59A G74U — lower, 0.561
- U60C G76C — higher, 1.16
- U60C G76A — the same, 1.05
- C58U G74A — lower, 0.462
- C58U G59U — the same, 1.05
- C58A U69G — lower, 1.04
- C58A U69A — higher, 1.07
- U60G A83G — lower, 0.712
- U60G A83U — lower, 0.415
- C58A U60G — lower, 0.831
- C58A U60C — higher, 1.17
- G59C C63G — lower, 0.909
- G59A A87G — lower, 1.04
- G59A A87C — lower, 0.974
- G59A G67A — lower, 0.979
- G59A C84A — lower, 0.929
- G59C U79A — lower, 0.987
- G59C U79G — lower, 0.712
- G59C U79C — lower, 0.431
- G59C C85G — lower, 0.955
- G59C C85A — lower, 0.937
- G59C G73C — lower, 0.575
- G59U C64G — higher, 1.13
- G59U C64U — the same, 1.05
- C58A C85A — lower, 0.877
- C58A C85G — lower, 0.957
- G59C C86G — higher, 1.06
- G59C C86A — lower, 0.914
- G59C C86U — lower, 1.01
- U60G A87C — lower, 0.831
- U60G A87G — lower, 0.921
- C58A U65C — higher, 1.19
- C58U G67A — lower, 0.909
- U60C U79C — lower, 0.326
- G59A A77G — lower, 0.867
- C58U G68U — higher, 1.07
- C58U G68C — lower, 0.95
- U60A G80U — lower, 0.299
- C58U A71U — higher, 1.16
- C58U G81U — lower, 0.289
- C58U G81C — lower, 0.31
- C58U G81A — lower, 0.584
- C58G A78U — lower, 0.277
- C58G A78G — lower, 0.723
- G59C G80U — lower, 0.244
- C58A C62G — higher, 1.19
- C58A C62U — higher, 1.08
- U60A A78C — lower, 0
- U60A A78U — lower, 0.249
- U60A A78G — lower, 0.808
- C58G U79A — lower, 0.571
- G59U G81A — lower, 0.361
- G59U G81C — lower, 0.223
- C58G G74C — lower, 0.101
- C58U C64A — lower, 0.867
- C58G C84U — lower, 0.721
- C58G A87G — lower, 0.874
- G59U G82A — lower, 0.338
- G59U G82C — lower, 0.228
- G59C A78G — lower, 0.778
- G59C A78C — lower, 0.179
- C58U C85G — higher, 1.07
- C58U C85U — lower, 0.945
- G59C U60G — higher, 1.16
- G59C G68A — lower, 0.906
- G59A A70U — lower, 0.941
- G59A A70G — higher, 1.2
- U60A C86G — lower, 0.851
- C58G G80U — lower, 0.0903
- U60A G81A — lower, 0.514
- U60C A70C — lower, 1.04
- U60C C86U — lower, 0.88
- U60C C86A — lower, 0.831
- U60A C84U — lower, 0.793
- U60A C84A — lower, 0.911
- C58G C66U — lower, 1.01
- U60C C61A — lower, 0.831
- U60C C61G — lower, 0.751
- U60C C63U — lower, 0.98
- C58U A70C — lower, 0.831
- C58U A70U — higher, 1.29
- C58U A70G — lower, 1.01
- U60C G68C — lower, 0.755
- U60C G68A — lower, 0.81
- U60C G68U — higher, 1.2
- U60C G81C — lower, 0.291
- C58U A77U — lower, 0.68
- C58U A77G — lower, 0.929
- C58A C66A — lower, 0.959
- U60A C62U — higher, 1.08
- U60A C62A — lower, 0.886
- C58G G81U — lower, 0.26
- C58G G81C — lower, 0.364
- G59U C85U — lower, 0.935
- G59U C85G — lower, 0.695
- G59U C85A — lower, 0.749
- C58U G76C — lower, 0.935
- C58U G76A — higher, 1.08
- C58U G76U — lower, 1.02
- G59C A77C — lower, 0.101
- G59C A71G — lower, 0.831
- G59C A71C — lower, 0.677
- G59U C66G — lower, 0.981
- C58A G82A — lower, 0.614
- U60C G67A — lower, 0.776
- G59U G74U — lower, 0.502
- G59U G74C — lower, 0.271
- G59U G74A — lower, 0.46
- U60A C85A — lower, 0.831
- C58A G80C — lower, 0.0707
- U60G A71C — higher, 1.21
- U60G A71U — lower, 0.918
- C58G G68C — lower, 0.748
- C58G G68A — lower, 1.03
- C58G G73A — lower, 0.406
- C58G A71U — lower, 0.779
- C58G A71G — higher, 1.07
- C58U U60G — higher, 1.2
- G59U A71G — higher, 1.13
- G59C C61U — lower, 1.01
- G59C C61A — lower, 0.969
- G59C C61G — lower, 0.927
- U60A A87G — lower, 0.823
- C58U C86A — lower, 1.01
- C58U C86G — lower, 0.895
- C58U C86U — lower, 0.969
- U60C A71U — lower, 0.665
- C58A U79A — lower, 0.789
- G59A G82C — lower, 0.208
- G59A G82A — lower, 0.466
- G59C U65C — lower, 1.01
- C58U A78U — lower, 0.277
- C58U A78C — lower, 0.305
- G59U A78U — lower, 0.285
- G59U A78C — lower, 0.113
- U60C A77U — lower, 0.831
- G59U U69A — lower, 0.85
- G59U U69G — higher, 1.14
- G59U G73C — lower, 0.614
- G59U G73U — lower, 0.516
- U60G A77U — lower, 0.237
- U60G A77C — lower, 0.227
- U60C C75A — lower, 0.237
- U60C C75G — lower, 0.128
- G59C C75G — lower, 0.189
- G59C C75U — lower, 0.233
